Assay in all cases: fluorescence polarisation
The target of assay [1] is T1, KaiC (Synechococcus elongatus, UniProt Q79PF4 1-519).
T1 sequence (looked up): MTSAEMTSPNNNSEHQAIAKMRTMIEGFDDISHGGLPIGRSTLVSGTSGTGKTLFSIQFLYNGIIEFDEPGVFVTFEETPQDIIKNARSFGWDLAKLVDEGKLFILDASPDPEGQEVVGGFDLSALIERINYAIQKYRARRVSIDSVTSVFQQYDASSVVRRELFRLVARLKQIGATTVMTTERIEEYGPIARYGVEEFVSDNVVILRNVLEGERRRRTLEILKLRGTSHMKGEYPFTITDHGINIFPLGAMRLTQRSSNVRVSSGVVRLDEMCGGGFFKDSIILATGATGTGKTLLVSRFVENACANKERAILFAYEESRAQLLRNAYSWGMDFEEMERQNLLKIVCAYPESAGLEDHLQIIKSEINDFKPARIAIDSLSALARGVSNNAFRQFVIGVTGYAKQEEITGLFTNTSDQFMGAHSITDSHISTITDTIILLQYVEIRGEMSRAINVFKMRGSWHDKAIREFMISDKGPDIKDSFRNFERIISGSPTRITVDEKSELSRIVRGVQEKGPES

Assay [2] deals with T1, KaiC. The source holds these as a separate data set.
The target of another assay is T2, KaiC-EA (Synechococcus elongatus, UniProt Q79PF4 1-519, S431E (KaiC-EA) | T432A (KaiC-EA)).
T2 sequence (looked up): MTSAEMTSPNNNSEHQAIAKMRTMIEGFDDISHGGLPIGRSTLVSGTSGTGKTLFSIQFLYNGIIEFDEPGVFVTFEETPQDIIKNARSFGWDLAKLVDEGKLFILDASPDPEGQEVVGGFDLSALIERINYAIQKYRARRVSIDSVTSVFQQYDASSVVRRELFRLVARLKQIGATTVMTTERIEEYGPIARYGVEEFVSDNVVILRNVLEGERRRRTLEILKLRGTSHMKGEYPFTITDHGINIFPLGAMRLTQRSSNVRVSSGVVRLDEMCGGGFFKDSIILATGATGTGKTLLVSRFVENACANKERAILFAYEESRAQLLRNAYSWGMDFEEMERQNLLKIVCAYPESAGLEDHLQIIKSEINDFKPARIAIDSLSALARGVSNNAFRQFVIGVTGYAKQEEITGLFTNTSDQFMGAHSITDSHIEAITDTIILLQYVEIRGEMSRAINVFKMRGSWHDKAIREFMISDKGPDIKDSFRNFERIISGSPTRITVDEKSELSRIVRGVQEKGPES

The target in assay [3] is T3, circadian input kinase A, CikA (Synechococcus elongatus, UniProt Q9KHI5 1-754, fluorescent probe attached by sortase A-mediated ligation).
T3 sequence (looked up): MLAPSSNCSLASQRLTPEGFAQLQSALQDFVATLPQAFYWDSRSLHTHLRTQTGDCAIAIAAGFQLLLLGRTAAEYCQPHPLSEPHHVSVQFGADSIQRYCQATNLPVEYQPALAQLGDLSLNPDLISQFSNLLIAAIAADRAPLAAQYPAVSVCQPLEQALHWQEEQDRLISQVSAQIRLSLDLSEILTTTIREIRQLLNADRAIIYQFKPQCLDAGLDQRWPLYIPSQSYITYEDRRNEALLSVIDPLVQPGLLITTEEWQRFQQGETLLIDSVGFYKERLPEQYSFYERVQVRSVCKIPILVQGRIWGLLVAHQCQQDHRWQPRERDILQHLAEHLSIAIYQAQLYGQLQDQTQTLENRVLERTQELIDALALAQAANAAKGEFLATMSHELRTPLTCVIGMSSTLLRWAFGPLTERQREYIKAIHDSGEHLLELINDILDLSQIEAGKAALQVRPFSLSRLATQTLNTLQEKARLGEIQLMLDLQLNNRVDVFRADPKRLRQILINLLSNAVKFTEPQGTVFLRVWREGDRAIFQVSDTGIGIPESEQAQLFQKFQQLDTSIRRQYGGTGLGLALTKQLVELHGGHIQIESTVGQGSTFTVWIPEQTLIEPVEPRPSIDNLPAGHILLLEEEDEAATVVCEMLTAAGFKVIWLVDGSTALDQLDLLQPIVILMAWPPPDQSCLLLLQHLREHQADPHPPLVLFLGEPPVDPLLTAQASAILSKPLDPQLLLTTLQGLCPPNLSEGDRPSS

Where two headings read alike, the source gives them in different places.

B1: SasA-H28A-Q94A (enzyme, Synechococcus elongatus, UniProt Q06904 1-387, looked up)
chain: MGESLSPQALAQPLLLQLFVDTRPLSQAIVQRVKNILAAVEATVPISLQVINVADQPQLVEYYRLVVTPALVKIGPGSRQVLSGIDLTDQLANALPQWLVQQEAFFADREPPEVNIPFTELGQPETPALQQADAFFQLQQQYADLSERTKFLEQVIALVAHDLRNPLTAALLAVDTIQIRSQSFSVATAKEMQGLCSLFDQARSQLREIERMIAEILEATRHSGESLRINPREVVFEPLLQQVLEQLHERWRSKQQQLITDVPGDLPTLYADPDRLRQVLVNLLDNAIKYTPPGGTITIAALHRTSQKVQISISDTGSGIPRDQLSVIFKNLVRLSRDSSQEGYGIGLSVCQRIVQAHFGRIWVASELGQGSTFHFTMPVYRYTMPC
For the molecule B1, in the assay with KaiC [1], the binding result is given as “binds”.

B2: KaiB (natural protein, Synechococcus elongatus, UniProt Q79PF5 1-102, looked up)
chain: MSPRKTYILKLYVAGNTPNSVRALKTLKNILEVEFQGVYALKVIDVLKNPQLAEEDKILATPTLAKVLPLPVRRIIGDLSDREKVLIGLDLLYGELQDSDDF
modifications: fluorescent probe attached by sortase A-mediated ligation
For B2, the binding result with KaiC [2] and in the assay with KaiC-EA was “binds” throughout.

B3: KaiB-KaiC complex (complex, Synechococcus elongatus)
chain 1: MSPRKTYILKLYVAGNTPNSVRALKTLKNILEVEFQGVYALKVIDVLKNPQLAEEDKILATPTLAKVLPLPVRRIIGDLSDREKVLIGLDLLYGELQDSDDF
chain 2: MTSAEMTSPNNNSEHQAIAKMRTMIEGFDDISHGGLPIGRSTLVSGTSGTGKTLFSIQFLYNGIIEFDEPGVFVTFEETPQDIIKNARSFGWDLAKLVDEGKLFILDASPDPEGQEVVGGFDLSALIERINYAIQKYRARRVSIDSVTSVFQQYDASSVVRRELFRLVARLKQIGATTVMTTERIEEYGPIARYGVEEFVSDNVVILRNVLEGERRRRTLEILKLRGTSHMKGEYPFTITDHGINIFPLGAMRLTQRSSNVRVSSGVVRLDEMCGGGFFKDSIILATGATGTGKTLLVSRFVENACANKERAILFAYEESRAQLLRNAYSWGMDFEEMERQNLLKIVCAYPESAGLEDHLQIIKSEINDFKPARIAIDSLSALARGVSNNAFRQFVIGVTGYAKQEEITGLFTNTSDQFMGAHSITDSHISTITDTIILLQYVEIRGEMSRAINVFKMRGSWHDKAIREFMISDKGPDIKDSFRNFERIISGSPTRITVDEKSELSRIVRGVQEKGPES
In the case of B3, the binding result in assay [3] is on record as “binds”.

B4: KaiA (natural protein, Synechococcus elongatus, UniProt Q79PF6 1-284, looked up)
chain: MLSQIAICIWVESTAILQDCQRALSADRYQLQVCESGEMLLEYAQTHRDQIDCLILVAANPSFRAVVQQLCFEGVVVPAIVVGDRDSEDPDEPAKEQLYHSAELHLGIHQLEQLPYQVDAALAEFLRLAPVETMADHIMLMGANHDPELSSQQRDLAQRLQERLGYLGVYYKRDPDRFLRNLPAYESQKLHQAMQTSYREIVLSYFSPNSNLNQSIDNFVNMAFFADVPVTKVVEIHMELMDEFAKKLRVEGRSEDILLDYRLTLIDVIAHLCEMYRRSIPRET
modifications: fluorescent probe attached by sortase A-mediated ligation
In the case of B4, the binding result in the assay with KaiC [2] is given as “binds”.

Values taken from article PMC8686788 (Science (New York, N.Y.), 2021).
